Key:
Hfq65 (Escherichia coli) = Hfq65 (Escherichia coli) (UniProt P0A6X3); assay: EMSA
Hfqwt (Escherichia coli) = Hfqwt (Escherichia coli) (UniProt P0A6X3); assay: EMSA
Sequence of Hfqwt (Escherichia coli) (P0A6X3 whole entry): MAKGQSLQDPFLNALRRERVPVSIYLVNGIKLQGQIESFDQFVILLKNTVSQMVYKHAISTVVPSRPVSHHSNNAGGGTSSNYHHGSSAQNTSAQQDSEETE

Sequence of Hfq65 (Escherichia coli) (P0A6X3 1-65): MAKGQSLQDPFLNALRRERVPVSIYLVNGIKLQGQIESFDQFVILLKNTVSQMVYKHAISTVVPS

RyhB
Kd (Hfq65 (Escherichia coli)): 35 nM | Kd (Hfqwt (Escherichia coli)): 16 nM

Reference: PMC2248732
